Measured values reported in patent publication US20170088605A1 (Novartis, published 2017).
Like-named read-outs stand apart in the source and are kept apart here.

Legend:
[1] = molecular target: pooled RAV virus (BKV serotype I, 20 amino acid changes throughout VP1) (BK virus serotype I); assay: cell-based or functional assay
[2] = molecular target: T1, BKV serotype I infectious virus (VP1) (BK virus serotype I, UniProt P03088 1-362); assay: cell-based or functional assay
T1 sequence (looked up): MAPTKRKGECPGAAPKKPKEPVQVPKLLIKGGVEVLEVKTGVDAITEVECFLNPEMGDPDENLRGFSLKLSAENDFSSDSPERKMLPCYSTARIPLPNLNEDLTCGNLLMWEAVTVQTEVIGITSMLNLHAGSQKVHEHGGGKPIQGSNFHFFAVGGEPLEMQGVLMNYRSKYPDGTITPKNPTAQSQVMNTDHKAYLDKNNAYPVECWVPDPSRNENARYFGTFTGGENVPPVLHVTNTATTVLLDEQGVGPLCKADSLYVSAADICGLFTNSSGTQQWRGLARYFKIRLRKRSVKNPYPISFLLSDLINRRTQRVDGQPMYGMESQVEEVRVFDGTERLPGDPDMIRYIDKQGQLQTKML

[3] = molecular target: T2, BKV serotype II chimeric infectious virus (VP1 of isolate SB) (BK virus serotype II); assay: cell-based or functional assay
[4] = molecular target: BKV serotype III chimeric infectious virus (VP1 of isolate AS) (BK virus serotype III); assay: cell-based or functional assay
[5] = molecular target: BKV serotype IV chimeric infectious virus (VP1 of strain ITA-4) (BK virus serotype IV); assay: cell-based or functional assay
[6] = molecular target: T3, JCV infectious virus, isolates Mad-1 and Mad-4 (VP1) (JC virus); assay: cell-based or functional assay
[7] = molecular target: T4, BKV serotype I VP1 pentamer (BK virus serotype I, UniProt P03088 30-297); assay: SET (solution equilibrium titration) on VP1 pentamers
T4 construct: also called serotype I pentamers; BKV-VP1 serotype I pentameric protein

[8] = molecular target: T5, BKV serotype II VP1 pentamer (BK virus serotype II, UniProt P14996 30-297); assay: as above
T5 construct: also called serotype II pentamers

[9] = molecular target: T6, BKV serotype III VP1 pentamer (BK virus serotype III, UniProt P14996 30-297); assay: as above
T6 construct: also called serotype III pentamers

[10] = molecular target: T7, BKV serotype IV VP1 pentamer (BK virus serotype IV, UniProt P14996 30-297); assay: as above
T7 construct: also called serotype IV pentamers

[11] = molecular target: T2, BKV serotype II chimeric infectious …; assay: cell-based or functional assay; remark: listed apart in the source
[12] = molecular target: T3, JCV infectious virus, isolates Mad-1 …; assay: cell-based or functional assay; remark: listed apart in the source
[13] = molecular target: T8, JCV VLP (consensus) (JC virus, UniProt P03089 1-354); assay: ELISA on coated JCV VLPs
T8 construct: also called JCV VLPs; JC virus VLPs

[14] = molecular target: T8, JCV VLP (consensus); assay: ELISA on plates coated with JCV VLPs, OD 450 nm

Row | Binder | EC50 of neutralization, fold change against wild-type virus [1] | neutralization EC50 [2] | neutralization EC90 [2] | neutralization EC50 [3] | neutralization EC90 [3] | neutralization EC50 [4] | neutralization EC90 [4] | neutralization EC50 [5] | neutralization EC90 [5] | neutralization EC50 [6] | neutralization EC90 [6] | Kd [7] | Kd [8] | Kd [9] | Kd [10] | activity (EC90), fold more potent than NEG447 [11] | neutralization EC50 [12] | neutralization EC90 [12] | IC50 [13] | EC50 (read off the curve) [14]
1 | P8D11 (antibody, human IgG1, lambda) heavy: not shown light: QSVLTQPPSVSVAPGKTARITCGGDNIGSRPVHWYQQKPGQAPILVVYDDSNRPSGIPERFSGSNSGNTATLTISRVEAGDEADYYCQVWSSSTDHPFGGGTKVTVLGQPKAAPSVTLFPPSSEELQANKATLVCLISDFYPGAVTVAWKADSSPVKAGVETTTPSKQSNNKYAASSYLSLTPEQWKSHRSYSCQVTHEGSTVEKTVAPTECS | 3.9 fold | 0.015 µg/mL | 0.24 µg/mL | 0.089 µg/mL | 6.34 µg/mL | 0.092 µg/mL | 0.53 µg/mL | 0.023 µg/mL | 0.39 µg/mL | 0.09 µg/mL | 2.76 µg/mL |  |  |  |  |  |  |  |  | 
2 | P8D11A (antibody, V domains shown) VH: QVQLVESGGTLVQPGGSLRLSCAASGFTFSNYWMTWVRQAPGKGLEWVANIKKDGSEKYYVDSVRGRFTISRDNAKNSLFLQMNSLRPEDTAVYFCATVRSGRYFALDDWGQGTLVTVSS VL: QSVLTQPPSVSVAPGKTARITCGGDNIGSRPVHWYQQKPGQAPILVVYDDSNRPSGIPERFSGSNSGNTATLTISRVEAGDEADYYCQVWSSSTDHPFGGGTKVTVLG |  | 0.005 µg/mL | 0.19 µg/mL | 0.029 µg/mL | 8.68 µg/mL | 0.01 µg/mL | 0.59 µg/mL | 0.015 µg/mL | 0.064 µg/mL |  |  | 4.4 pM | 2.5 pM | 3.7 pM | 2.9 pM |  |  |  |  | 
3 | P8D11B (antibody, V domains shown) VH: QVQLVESGGTLVQPGGSLRLSCAASGFTFKNYWMTWVRQAPGKGLEWVANIKKDGSEKYYVDSVRGRFTISRDNAKNSLFLQMNSLRPEDTAVYFCATVRSGRYFALDDWGQGTLVTVSS VL: QSVLTQPPSVSVAPGKTARITCGGDNIGSRPVHWYQQKPGQAPILVVYDDSNRPSGIPERFSGSNSGNTATLTISRVEAGDEADYYCQVWSSSTDHPFGGGTKVTVLG |  | 0.003 µg/mL | 0.3 µg/mL | 0.088 µg/mL | 1.93 µg/mL | 0.014 µg/mL | 0.5 µg/mL | 0.005 µg/mL | 0.54 µg/mL |  |  | 3.8 pM | 1.8 pM | 2.5 pM | 2.9 pM |  |  |  |  | 
4 | P8D11C (antibody, V domains shown) VH: QVQLVESGGTLVQPGGSLRLSCAASGFTFQNYWMTWVRQAPGKGLEWVANIKKDGSEKYYVDSVRGRFTISRDNAKNSLFLQMNSLRPEDTAVYFCATVRSGRYFALDDWGQGTLVTVSS VL: QSVLTQPPSVSVAPGKTARITCGGDNIGSRPVHWYQQKPGQAPILVVYDDSNRPSGIPERFSGSNSGNTATLTISRVEAGDEADYYCQVWSSSTDHPFGGGTKVTVLG |  | 0.0003 µg/mL | 0.34 µg/mL | 0.18 µg/mL | 0.5 µg/mL | 0.049 µg/mL | 0.51 µg/mL | 0.005 µg/mL | 0.54 µg/mL |  |  | 4.5 pM | 2.7 pM | 4.8 pM | 2.7 pM |  |  |  |  | 
5 | P8D11D (antibody) heavy: not shown light: QSVLTQPPSVSVAPGKTARITCGGDNIGSRPVHWYQQKPGQAPILVVYDDSNRPSGIPERFSGSNSGNTATLTISRVEAGDEADYYCQVWSSSTDHPFGGGTKVTVLGQPKAAPSVTLFPPSSEELQANKATLVCLISDFYPGAVTVAWKADSSPVKAGVETTTPSKQSNNKYAASSYLSLTPEQWKSHRSYSCQVTHEGSTVEKTVAPTECS |  | 0.034 µg/mL | 0.15 µg/mL | 0.161 µg/mL | 1.64 µg/mL | 0.185 µg/mL | 0.87 µg/mL | 0.003 µg/mL | 0.063 µg/mL |  |  | 5 pM | 2 pM | 5 pM | 3.2 pM |  |  |  |  | 
6 | P8D11E (antibody) heavy: not shown light: QSVLTQPPSVSVAPGKTARITCGGDNIGSRPVHWYQQKPGQAPILVVYDDSNRPSGIPERFSGSNSGNTATLTISRVEAGDEADYYCQVWSSSTDHPFGGGTKVTVLGQPKAAPSVTLFPPSSEELQANKATLVCLISDFYPGAVTVAWKADSSPVKAGVETTTPSKQSNNKYAASSYLSLTPEQWKSHRSYSCQVTHEGSTVEKTVAPTECS |  | 0.032 µg/mL | 0.11 µg/mL | 0.144 µg/mL | 2.52 µg/mL | 0.236 µg/mL | 0.9 µg/mL | 0.002 µg/mL | 0.087 µg/mL |  |  | 4.3 pM | 1.7 pM | 6 pM | 2.7 pM |  |  |  |  | 
7 | NEG447A (antibody, human IgG1, lambda, V domains shown) VH: QVQLQESGPGLVKPSETLSLTCTVSGGSISRDYWSWVRQPPGAGLEWIGNIYYSGSTNYNPSLKSRVTISVATNKKQFSLKLTSVTAADTAVYYCARVPGCSSTSCIDGWFDPWGQGILVTVSS VL: QSVLTQPPSVSAAPGQKVTISCSGSSSNIGNTYVSWYQQLPGTAPKLLIYDNNKRPSGIPDRFSGSKSGTSATLGITGLQTGDEADYYCGTWDSSLSAWVFGGGTRLTVLG |  | 0.0001 µg/mL | 0.094 µg/mL | 0.11 µg/mL | 0.84 µg/mL | > 100 µg/mL | > 100 µg/mL | 0.011 µg/mL | 0.26 µg/mL |  |  |  |  |  |  | ~8 fold |  |  |  | 
8 | 2077-7-5 (antibody, V domains shown) VH: EVQLQQSGPELVKPGASMKISCKASGYSFTGYTMNWVKQSHGKNLEWIGLFNPYNGGINYNQKFKGKATLTVDKSSSTAYMELLSLTSEDSAVYYCARLRYYGIGDDFFDYWGQGTSLTVSS VL: DIVMTQSHKFMSTSVGDRVSITCKASRDVGTAVAWYQQKPGQSPKLLIYWASTRHTGVPDRFTGSGSGTDFTLTISNVQSEDLADYFCQQYSNYPYTFGGGTKLEMK |  |  |  |  |  |  |  |  |  |  |  |  |  |  |  |  | 0.097 µg/mL | 1.1 µg/mL | 651 pM | ~600 pM
9 | 2077-26-1 (antibody, V domains shown) VH: EVQLQQSGPDLVKPGASMKLSCKASGYSFTGYTMNWVKQSHGKNLEWIGLFNPYNGGPSYNQKFKGKATLTVDKSSSTAYMELLSLTPEDSAVYYCARLRYYGIGDDFFDYWGQGTTLTVSS VL: DIVMTQSHKFMSTSVGDRVSITCKASQDVGTAVAWYQEKPGQSPKLLIYWASTRHTGVPDRFTGSGSGTDFTLTISNVQSEDLAYYFCQQYSNYPYTFGGGTKLEIK |  |  |  |  |  |  |  |  |  |  |  |  |  |  |  |  | 0.702 µg/mL | 3.2 µg/mL | 67 pM | ~60 pM
10 | 2077-28-2 (antibody, V domains shown) VH: EVQLQQSGPELVKPGASMKISCKASGYSFTGYTMNWVKQSHGKNLEWIGLFNPYNGGATYNQRFKGKATLTVDKSSSTAYMDLLSLTSEDSAVYYCTRLRKYGIGDDFFDYWGQGTTLTVSS VL: DIVMTQSHKFMSTSVGDRVSITCKASQDVGTAVAWYQQKPGQSPKLLIYWASTRHTGVPDRFTGSGSGTDFTLTISNVQSEDLADYFCQQYSTYTYTFGGGTKLEIK |  |  |  |  |  |  |  |  |  |  |  |  |  |  |  |  | 0.347 µg/mL | 6.82 µg/mL | 88 pM | ~90 pM
11 | 2077-10-1 (antibody, V domains shown) VH: EVQLQQSGPELVKPGASMKISCKASGYSFTGYTMNWMKQGHGKNLEWIGLFNPYNGGPNYNQKFKGKATLTVDKSSSTAYMELLSLTSEDSAVYYCARLRYYGIGDDFFDYWGQGTTLTVSS VL: DIVMTQSHKFMSTSVGDRVSITCKASQDVGTAVAWYQQKPGQSPKLLIYWASTRHTGVPDRFTGSGSGTDFTLTITNVQSEDLTDYFCQQYSSYPYTFGGGTKLEIK |  |  |  |  |  |  |  |  |  |  |  |  |  |  |  |  | 1.49 µg/mL | > 10 µg/mL | 100 pM | ~90 pM
